# Several values for one entry are separate records, joined by “and”; a condition that tells them apart may be missing. Equal entries are not always repeated.
# Columns and labels:
# telemetered dogs = experiment: Conscious dog telemetry (QRS amplitude and other cardiovascular parameters, tolerability)
# [1] = Body weight and tolerability in RS4;11 xenograft mice; assay type: in vivo, C.B-17 SCID mouse; details: for Percentage Body Weight Change post Dosing: single animals
# Method: Female C.B.−17 SCID mice were purchased from Charles River Laboratories. Mice were 5–8 weeks old at the time of tumour implantation. All xenograft studies were conducted at our Association for the Assessment and Accreditation of Laboratory Animal Care accredited facility in Waltham, MA in accordance with ethical regulations described in the guidelines established by the internal Institutional Animal Care and Use Committee. The dendrimer conjugates were formulated in citrate/phosphate buffer pH 5.0, diluted 1:10 with 5% glucose containing 1% w/v Kolliphor HS15, and AZD4320 was formulated in 30% HP-β-CD and dosed as a weekly intravenous (IV) administration at a volume of 5 ml/kg at the indicated doses. Five million RS4;11, five million SUDHL-4 or five million OCI-LY-10 cells were injected subcutaneously in the right flank of mice in a volume of 0.1 ml. Tumour volumes (measured by caliper), animal body weight, and tumor condition were recorded twice weekly for the duration of the study. The tumour volume was calculated (taking length to be the longest diameter across the tumour and width to be the corresponding perpendicular diameter) using the formula: length (mm) x width (mm)^2/0.52. For efficacy studies, mice were randomized based on tumour volumes using stratified sampling and enrolled into control and treatment groups. Tumour growth inhibition from the start of treatment was quantified by measuring the difference in tumour volume between control and treated groups. Survival analysis was evaluated using Mantel-Cox test. Tumours were also taken for bioanalysis. […]
# Supplementary Figure 13. Percent total body weight change in mouse RS4;11 xenograft model (n=6). Percent change in body weight of mice measured twice weekly after start of treatment with various doses of AZD0466. […]
# [2] = dog, AZD0466 10 mg/kg (3 mg/kg AZD4320 equivalent), 1 h infusion
# [3] = dog, AZD0466 30 mg/kg (9 mg/kg AZD4320 equivalent), 1 h infusion
# [4] = dog, AZD0466 60 mg/kg (18 mg/kg AZD4320 equivalent), 1 h infusion
substance,measurement,setting,value
AZD4320-MIDA-PEG2100 [AZD0466],other cardiovascular effects,"telemetered dogs; conscious telemetered dogs, 1-hour infusion","A small increase in diastolic BP, a transient and delayed-onset small increase in heart rate, a decrease in dP/dt+ (an index of cardiac contractility) and a decrease in PR interval"
same,effect on QRS amplitude,"telemetered dogs; conscious telemetered dogs, 1-hour infusion, 30 and 60 mg/kg",dose-dependent decrease in QRS amplitude that returned to baseline
same,"NOEL (no observed effect level), cardiovascular system",telemetered dogs; dog,10 mg/kg
same,improvement in cardiovascular tolerability based on dose vs AZD4320,telemetered dogs; dog,18 fold
same,effect on QRS amplitude,"telemetered dogs; dog, 10 mg/kg AZD0466 (equivalent to 3 mg/kg AZD4320)",no effect on QRS amplitude
same,Effects,telemetered dogs; [2],No effect level
same,Tolerated?,telemetered dogs; [2],Yes
same,Tolerated?,telemetered dogs; [3],Yes
same,↓QRS amplitude (% decrease),telemetered dogs; [3],30%
same,Effects other than QRS amplitude,telemetered dogs; [4],"↑DBP, ↑HR, ↓dP/dt+, ↓PR interval, ↓LVEDP"
same,Tolerated?,telemetered dogs; [4],Yes
same,↓QRS amplitude (% decrease),telemetered dogs; [4],33%
same,Percentage Body Weight Change post Dosing,"[1]; 10 mg/kg (3mg/kg AZD4320), day 41 post implant",0%
same,Percentage Body Weight Change post Dosing,"[1]; 10 mg/kg (3mg/kg AZD4320), day 44 post implant",-1.896% and 0% and -3.365% and -4.5045% and -0.9756% and 0.4739%
same,Percentage Body Weight Change post Dosing,"[1]; 10 mg/kg (3mg/kg AZD4320), day 48 post implant",2.37% and 2.899% and -4.327% and 0% (2×) and -0.9479%
same,Percentage Body Weight Change post Dosing,"[1]; 10 mg/kg (3mg/kg AZD4320), day 51 post implant",-2.8436% and -2.415% and -3.365% and -4.054% and -0.9756% and -3.318%
same,Percentage Body Weight Change post Dosing,"[1]; 10 mg/kg (3mg/kg AZD4320), day 55 post implant",1.4218% and 2.415% and -1.923% and 0.9009% and 1.951% and 0.4739%
same,Percentage Body Weight Change post Dosing,"[1]; 10 mg/kg (3mg/kg AZD4320), day 58 post implant",-0.9479% and -0.4831% and -2.885% and 0% and 2.927% and 0.4739%
same,Percentage Body Weight Change post Dosing,"[1]; 10 mg/kg (3mg/kg AZD4320), day 63 post implant",5.6872% and 4.831% and -0.9615% and 3.6036% and 7.317% and 2.8436%
same,Percentage Body Weight Change post Dosing,"[1]; 10 mg/kg (3mg/kg AZD4320), day 66 post implant",4.2654% and 2.415% and -4.327% and 0.4505% and 3.415% and -1.4218%
same,Percentage Body Weight Change post Dosing,"[1]; 10 mg/kg (3mg/kg AZD4320), day 70 post implant",2.8436% and 1.449% and -1.923% and 3.153% and 5.366% and 0.9479%
same,Percentage Body Weight Change post Dosing,"[1]; 10 mg/kg (3mg/kg AZD4320), day 73 post implant",3.318% and 7.246% and -1.442% and 1.8018% and 6.829% and 0%
same,Percentage Body Weight Change post Dosing,"[1]; 10 mg/kg (3mg/kg AZD4320), day 77 post implant",3.791% and 4.348% and -2.404% and 2.7027% and 5.854% and 0%
same,Percentage Body Weight Change post Dosing,"[1]; 10 mg/kg (3mg/kg AZD4320), day 80 post implant",7.109% and 6.763% and 2.404% and 9.268% and 2.8436%
same,Percentage Body Weight Change post Dosing,"[1]; 10 mg/kg (3mg/kg AZD4320), day 83 post implant",6.635% and 1.932% and 1.923% and 8.78% and 1.4218%
same,Percentage Body Weight Change post Dosing,"[1]; 34 mg/kg (10mg/kg AZD4320), day 41 post implant",0%
same,Percentage Body Weight Change post Dosing,"[1]; 34 mg/kg (10mg/kg AZD4320), day 44 post implant",-0.9346% and -3.922% and -3.6036% and -0.5155% and -2.427% and -2.913%
same,Percentage Body Weight Change post Dosing,"[1]; 34 mg/kg (10mg/kg AZD4320), day 48 post implant",-2.336% and -1.471% and -2.252% and -1.546% and 0% and -1.456%
same,Percentage Body Weight Change post Dosing,"[1]; 34 mg/kg (10mg/kg AZD4320), day 51 post implant",-2.804% and -6.373% and -5.405% and -1.031% and -4.369% and -1.942%
same,Percentage Body Weight Change post Dosing,"[1]; 34 mg/kg (10mg/kg AZD4320), day 55 post implant",-1.869% and -0.4902% and -2.252% and 1.031% and -1.942% and -0.9709%
same,Percentage Body Weight Change post Dosing,"[1]; 34 mg/kg (10mg/kg AZD4320), day 58 post implant",-1.402% and -3.431% and -3.153% and 1.546% and -2.913% and -0.9709%
same,Percentage Body Weight Change post Dosing,"[1]; 34 mg/kg (10mg/kg AZD4320), day 63 post implant",2.336% and -2.451% and 0% and 5.361% and 1.942% and 6.311%
same,Percentage Body Weight Change post Dosing,"[1]; 34 mg/kg (10mg/kg AZD4320), day 66 post implant",-2.336% and -4.412% and 0% and 1.031% and 1.456% and 6.796%
same,Percentage Body Weight Change post Dosing,"[1]; 34 mg/kg (10mg/kg AZD4320), day 70 post implant",-0.9346% and -5.392% and 0.4505% and 2.062% and 2.913% and 2.427%
same,Percentage Body Weight Change post Dosing,"[1]; 34 mg/kg (10mg/kg AZD4320), day 73 post implant",2.336% and -3.431% and 2.252% and 1.546% and 3.883% and 3.398%
same,Percentage Body Weight Change post Dosing,"[1]; 34 mg/kg (10mg/kg AZD4320), day 77 post implant",3.271% and -3.922% and 1.351% and 3.093% and 2.913% and 2.427%
same,Percentage Body Weight Change post Dosing,"[1]; 34 mg/kg (10mg/kg AZD4320), day 80 post implant",4.6729% and -1.471% and 7.207% and 5.155% and 3.883% and 6.796%
same,Percentage Body Weight Change post Dosing,"[1]; 34 mg/kg (10mg/kg AZD4320), day 83 post implant",4.206% and -1.961% and 7.658% and 4.639% and 4.854% and 9.709%
same,Percentage Body Weight Change post Dosing,"[1]; 103 mg/kg (30mg/kg AZD4320), day 41 post implant",0%
same,Percentage Body Weight Change post Dosing,"[1]; 103 mg/kg (30mg/kg AZD4320), day 44 post implant",-2.415% and -9.211% and -6.161% and -5.804% and 0% and -2%
same,Percentage Body Weight Change post Dosing,"[1]; 103 mg/kg (30mg/kg AZD4320), day 48 post implant",-0.9662% and -3.509% and -6.161% and -4.464% and -1.415% and -2.5%
same,Percentage Body Weight Change post Dosing,"[1]; 103 mg/kg (30mg/kg AZD4320), day 51 post implant",-1.449% and -4.386% and -7.109% and -5.357% and -2.83% and -4%
same,Percentage Body Weight Change post Dosing,"[1]; 103 mg/kg (30mg/kg AZD4320), day 55 post implant",0.4831% and -0.4386% and -5.213% and -3.125% and 0% and -3.5%
same,Percentage Body Weight Change post Dosing,"[1]; 103 mg/kg (30mg/kg AZD4320), day 58 post implant",-0.9662% and -1.754% and -5.213% and -4.464% and -0.9434% and -5.5%
same,Percentage Body Weight Change post Dosing,"[1]; 103 mg/kg (30mg/kg AZD4320), day 63 post implant",0.4831% and 1.842% and -3.791% and -2.232% and -1.887% and -2%
same,Percentage Body Weight Change post Dosing,"[1]; 103 mg/kg (30mg/kg AZD4320), day 66 post implant",-1.932% and -0.4386% and -4.2654% and -2.679% and -0.9434% and -2.5%
same,Percentage Body Weight Change post Dosing,"[1]; 103 mg/kg (30mg/kg AZD4320), day 70 post implant",-1.449% and 0.4386% and -3.318% and -1.786% and -0.9434% and -8%
same,Percentage Body Weight Change post Dosing,"[1]; 103 mg/kg (30mg/kg AZD4320), day 73 post implant",0.4831% and 1.316% and -1.896% and -4.018% and -2.83% and -4%
same,Percentage Body Weight Change post Dosing,"[1]; 103 mg/kg (30mg/kg AZD4320), day 77 post implant",0.4831% and 1.316% and 0% (2×) and -2.679% and -4%
same,Percentage Body Weight Change post Dosing,"[1]; 103 mg/kg (30mg/kg AZD4320), day 80 post implant",4.348% and 1.754% and 2.8436% and -1.786% and 0.4717% and -3%
same,Percentage Body Weight Change post Dosing,"[1]; 103 mg/kg (30mg/kg AZD4320), day 83 post implant",2.415% and 3.509% and 4.2654% and -2.232% and 0.4717% and -2%
same,tolerability in xenograft mice,"[1]; RS4;11 xenograft, all doses",well tolerated

# From article PMC7835349 (Communications Biology, 2021)
